Measured values reported in patent US20170182124A1, “FGF21 Derivatives and Uses Thereof” (Novo Nordisk A/S, priority 2014, published 2017).
Read-outs that look alike come from different tables or passages of the source. Marks after values point to notes of the source that are not given here.

B1: Ala[Gln121, Leu168]FGF21 (protein)
chain: AHPIPDSSPLLQFGGQVRQRYLYTDDAQQTEAHLEIREDGTVGGAADQSPESLLQLKALKPGVIQILGVKTSRFLCQRPDGALYGSLHFDPEACSFRELLLEDGYNVYQSEAHGLPLHLPGQKSPHRDPAPRGPARFLPLPGLPPALPEPPGILAPQPPDVGSSDPLSLVGPSQGRSPSYAS
modifications: N-terminal Ala
B2: S{Beta-181}-[2-[2-[[2-[2-[2-[[2-[2-[2-[[(4S)-4-carboxy-4-(17-carboxyheptadecanoyl-amino)butanoyl]amino]ethoxy]ethoxy]acetyl]amino]ethoxy]ethoxy]acetyl]amino]-ethylamino]-2-oxoethyl]-Met[Cys181]FGF21 (protein)
chain: MHPIPDSSPLLQFGGQVRQRYLYTDDAQQTEAHLEIREDGTVGGAADQSPESLLQLKALKPGVIQILGVKTSRFLCQRPDGALYGSLHFDPEACSFRELLLEDGYNVYQSEAHGLPLHLPGNKSPHRDPAPRGPARFLPLPGLPPALPEPPGILAPQPPDVGSSDPLSMVGPSQGRSPSYAC
B3: S{Beta-180}-[2-[2-[[2-[2-[2-[[2-[2-[2-[[(4S)-4-carboxy-4-(11-carboxyundecanoyl-amino)butanoyl]amino]ethoxy]ethoxy]acetyl]amino]ethoxy]ethoxy]acetyl]amino]-ethylamino]-2-oxoethyl]-Ala[Gln121,Leu168,Cys … (protein)
chain: HPIPDSSPLLQFGGQVRQRYLYTDDAQQTEAHLEIREDGTVGGAADQSPESLLQLKALKPGVIQILGVKTSRFLCQRPDGALYGSLHFDPEACSFRELLLEDGYNVYQSEAHGLPLHLPGQKSPHRDPAPRGPARFLPLPGLPPALPEPPGILAPQPPDVGSSDPLSLVGPSQGRSPSYCS
B4: S{Beta-181}-[2-[2-[[2-[2-[2-[[2-[2-[2-[[(4S)-4-carboxy-4-(19-carboxynonadecanoyl-amino)butanoyl]amino]ethoxy]ethoxy]acetyl]amino]ethoxy]ethoxy]acetyl]amino]-ethylamino]-2-oxoethyl]-Ala[Gln121,Leu168,C … (protein)
chain: HPIPDSSPLLQFGGQVRQRYLYTDDAQQTEAHLEIREDGTVGGAADQSPESLLQLKALKPGVIQILGVKTSRFLCQRPDGALYGSLHFDPEACSFRELLLEDGYNVYQSEAHGLPLHLPGQKSPHRDPAPRGPARFLPLPGLPPALPEPPGILAPQPPDVGSSDPLSLVGPSQGRSPSYAC
B5: S{Beta-180}-[2-[2-[[2-[2-[2-[[2-[2-[2-[[(4S)-4-carboxy-4-(13-carboxytridecanoyl-amino)butanoyl]amino]ethoxy]ethoxy]acetyl]amino]ethoxy]ethoxy]acetyl]amino]-ethylamino]-2-oxoethyl]-Ala[Gln121,Leu168,Cy … (protein)
chain: HPIPDSSPLLQFGGQVRQRYLYTDDAQQTEAHLEIREDGTVGGAADQSPESLLQLKALKPGVIQILGVKTSRFLCQRPDGALYGSLHFDPEACSFRELLLEDGYNVYQSEAHGLPLHLPGQKSPHRDPAPRGPARFLPLPGLPPALPEPPGILAPQPPDVGSSDPLSLVGPSQGRSPSYCS
B6: S{Beta-181}-[2-[2-[[2-[2-[2-[[2-[2-[2-[[(4S)-4-carboxy-4-(11-carboxyundecanoyl-amino)butanoyl]amino]ethoxy]ethoxy]acetyl]amino]ethoxy]ethoxy]acetyl]amino]-ethylamino]-2-oxoethyl]-Ala[Gln121,Leu168,Cys … (protein)
chain: HPIPDSSPLLQFGGQVRQRYLYTDDAQQTEAHLEIREDGTVGGAADQSPESLLQLKALKPGVIQILGVKTSRFLCQRPDGALYGSLHFDPEACSFRELLLEDGYNVYQSEAHGLPLHLPGQKSPHRDPAPRGPARFLPLPGLPPALPEPPGILAPQPPDVGSSDPLSLVGPSQGRSPSYAC
B7: S{Beta-181}-[2-[2-[[2-[2-[2-[[2-[2-[2-[[(4S)-4-carboxy-4-(17-carboxyheptadecanoyl-amino)butanoyl]amino]ethoxy]ethoxy]acetyl]amino]ethoxy]ethoxy]acetyl]amino]-ethylamino]-2-oxoethyl]-Ala[Gln121,Leu168, … (protein)
chain: HPIPDSSPLLQFGGQVRQRYLYTDDAQQTEAHLEIREDGTVGGAADQSPESLLQLKALKPGVIQILGVKTSRFLCQRPDGALYGSLHFDPEACSFRELLLEDGYNVYQSEAHGLPLHLPGQKSPHRDPAPRGPARFLPLPGLPPALPEPPGILAPQPPDVGSSDPLSLVGPSQGRSPSYAC
B8: S{Beta-180}-[2-[2-[[2-[2-[2-[[2-[2-[2-[[(4S)-4-carboxy-4-(17-carboxyheptadecanoyl-amino)butanoyl]amino]ethoxy]ethoxy]acetyl]amino]ethoxy]ethoxy]acetyl]amino]-ethylamino]-2-oxoethyl]-Ala[Gln121,Leu168, … (protein)
chain: HPIPDSSPLLQFGGQVRQRYLYTDDAQQTEAHLEIREDGTVGGAADQSPESLLQLKALKPGVIQILGVKTSRFLCQRPDGALYGSLHFDPEACSFRELLLEDGYNVYQSEAHGLPLHLPGQKSPHRDPAPRGPARFLPLPGLPPALPEPPGILAPQPPDVGSSDPLSLVGPSQGRSPSYC

Experiments:
3T3-L1 adipocytes = 3T3-L1 adipocytes (Mus musculus, UniProt P16092+Q99N32); assay: Glucose uptake in 3T3-L1 adipocytes; assay type: cell-based; details: stimulated 20 hours, 3H-deoxy-glucose
3T3-L1 adipocytes, sequence (Q99N32 whole entry): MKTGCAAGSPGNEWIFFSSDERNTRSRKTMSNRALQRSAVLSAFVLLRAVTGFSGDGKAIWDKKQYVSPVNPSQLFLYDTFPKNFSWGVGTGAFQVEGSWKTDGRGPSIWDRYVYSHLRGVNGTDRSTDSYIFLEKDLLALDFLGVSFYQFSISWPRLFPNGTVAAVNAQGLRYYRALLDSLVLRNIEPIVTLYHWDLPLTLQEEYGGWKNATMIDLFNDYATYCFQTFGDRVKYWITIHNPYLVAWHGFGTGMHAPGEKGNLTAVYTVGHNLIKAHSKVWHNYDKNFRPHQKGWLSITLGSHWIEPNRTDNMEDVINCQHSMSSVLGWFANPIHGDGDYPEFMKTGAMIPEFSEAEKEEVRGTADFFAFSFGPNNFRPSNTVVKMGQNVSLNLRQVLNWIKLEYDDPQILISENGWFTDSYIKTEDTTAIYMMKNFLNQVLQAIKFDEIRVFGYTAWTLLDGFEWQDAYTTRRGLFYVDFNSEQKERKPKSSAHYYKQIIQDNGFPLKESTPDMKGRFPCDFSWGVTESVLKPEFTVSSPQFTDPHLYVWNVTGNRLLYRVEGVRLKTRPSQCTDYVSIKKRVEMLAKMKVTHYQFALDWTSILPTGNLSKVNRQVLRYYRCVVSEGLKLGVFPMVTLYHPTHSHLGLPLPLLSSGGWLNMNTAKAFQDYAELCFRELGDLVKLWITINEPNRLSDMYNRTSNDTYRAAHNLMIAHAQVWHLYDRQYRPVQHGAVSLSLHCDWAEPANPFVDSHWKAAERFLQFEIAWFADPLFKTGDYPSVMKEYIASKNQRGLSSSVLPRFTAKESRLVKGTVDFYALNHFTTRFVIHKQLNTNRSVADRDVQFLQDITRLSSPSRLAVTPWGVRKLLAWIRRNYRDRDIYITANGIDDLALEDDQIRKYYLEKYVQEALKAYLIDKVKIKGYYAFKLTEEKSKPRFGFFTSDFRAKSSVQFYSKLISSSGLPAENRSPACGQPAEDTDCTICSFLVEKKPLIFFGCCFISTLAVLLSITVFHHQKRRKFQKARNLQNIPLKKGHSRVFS
3T3-L1 adipocytes, sequence (P16092 22-822): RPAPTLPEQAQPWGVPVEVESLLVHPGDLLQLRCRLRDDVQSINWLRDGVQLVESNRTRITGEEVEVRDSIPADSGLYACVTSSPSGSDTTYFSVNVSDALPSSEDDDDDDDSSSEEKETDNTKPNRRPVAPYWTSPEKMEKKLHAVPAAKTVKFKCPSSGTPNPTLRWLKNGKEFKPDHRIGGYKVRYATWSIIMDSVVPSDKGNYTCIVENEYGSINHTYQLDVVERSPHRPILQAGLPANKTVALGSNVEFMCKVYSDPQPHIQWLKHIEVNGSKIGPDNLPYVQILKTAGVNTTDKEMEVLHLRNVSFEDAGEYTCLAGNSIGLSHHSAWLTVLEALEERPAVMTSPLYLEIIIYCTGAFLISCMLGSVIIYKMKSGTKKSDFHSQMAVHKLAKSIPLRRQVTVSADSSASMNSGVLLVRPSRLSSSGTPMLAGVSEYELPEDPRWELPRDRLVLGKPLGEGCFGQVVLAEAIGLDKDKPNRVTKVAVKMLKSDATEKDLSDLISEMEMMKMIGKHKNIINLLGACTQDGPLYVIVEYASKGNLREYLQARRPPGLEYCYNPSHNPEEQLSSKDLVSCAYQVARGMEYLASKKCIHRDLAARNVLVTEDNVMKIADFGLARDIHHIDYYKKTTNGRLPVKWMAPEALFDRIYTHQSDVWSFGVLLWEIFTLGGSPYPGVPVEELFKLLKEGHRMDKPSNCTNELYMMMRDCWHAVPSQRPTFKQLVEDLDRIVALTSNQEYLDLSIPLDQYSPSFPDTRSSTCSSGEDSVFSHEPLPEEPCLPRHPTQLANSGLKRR
Experimental: The C-terminal modified analogues were tested for their ability to increase glucose uptake in 3T3-L1 mouse adipocytes. The following assay was used for determining the biological activity, or potency, of FGF21 analogues and derivatives of the invention.
The in vitro potency may also be determined in an assay with mouse 3T3-L1 adipocytes by testing the FGF21 analogues and derivatives for their ability to increase glucose uptake into adipocytes. Differentiated 3T3-L1 adipocytes endogenously express FGFR1c and BKL. The 3T3-L1 cells are unresponsive to FGF21 until after differentiated as differentiation lead to expression of the co-receptor BKL. Activation of the FGFR1 receptor/BKL complex increase the expression of glucose transporter 1 (GLUT1) and therefore FGF21 agonists will lead to an increased amount of glucose taken into the adipocytes in a dose responsive manner.
Mouse 3T3-L1 fibroblasts (e.g. available from ATCC, catalogue no. CL-173) were maintained in basal medium (DMEM (4500 mg/I Glucose) with 10% Fetal Bovine Serum (FBS) and 1% Penicillin/Streptomycin). The cells are not allowed to reach confluence and should be passed (transferred to new vials) before reaching approx. 60% of confluency (by visual inspection).
For the glucose uptake assay, cells were 15.000 cells/well in a 96 well plate (BIOCOAT), and when they reached confluency (high density, with a view to have differentiated adipose cells made), the medium was changed from basal medium to basal medium containing Troglitazone, IBMX, Dexamethasone (commercially available from, e.g., Sigma) and human insulin (commercially available from, e.g., Novo Nordisk A/S).
The cells were used 7-9, days after initiation of differentiation. The cells were stimulated with increasing concentrations (0-300 nM) of the FGF21 analogues or derivatives of the invention for 20 hours in basal medium. Before addition of 3H-deoxy-glucose (in what follows: the tracer) the cells were washed in warm (approximately 37° C.) assay buffer (PBS with 1 mM MgCl2 and 2 mM CaCl2), HEPES and 0.1% Human serum albumin) and the cells were incubated with the tracer for 1 hour. This incubation was terminated by washing twice in ice cold assay buffer. The cells were lysed with Triton X-100 and lysates transferred to a 96 wells plate, microscint-40 (commercially available from, e.g., Perkin Elmer) was added and amount of tracer counted in a TOP-counter (e.g. a Packard top-counter from Perkin Elmer). The EC50 and Emax of the FGF21 compound in question were calculated. The results which are shown in tables 4-5 below indicate the EC50 (potency) and Emax (efficacy) of the FGF21 analogues and derivatives, respectively.

FGF receptor/BKL complex = assay: FGF receptor potency in an Erk phosphorylation assay in HEK293 overexpressing human BKL; assay type: cell-based; details: HEK293/BKL cells, pERK after 12 minutes
FGF receptor/BKL complex, sequence (Q86Z14 whole entry, one chain of several): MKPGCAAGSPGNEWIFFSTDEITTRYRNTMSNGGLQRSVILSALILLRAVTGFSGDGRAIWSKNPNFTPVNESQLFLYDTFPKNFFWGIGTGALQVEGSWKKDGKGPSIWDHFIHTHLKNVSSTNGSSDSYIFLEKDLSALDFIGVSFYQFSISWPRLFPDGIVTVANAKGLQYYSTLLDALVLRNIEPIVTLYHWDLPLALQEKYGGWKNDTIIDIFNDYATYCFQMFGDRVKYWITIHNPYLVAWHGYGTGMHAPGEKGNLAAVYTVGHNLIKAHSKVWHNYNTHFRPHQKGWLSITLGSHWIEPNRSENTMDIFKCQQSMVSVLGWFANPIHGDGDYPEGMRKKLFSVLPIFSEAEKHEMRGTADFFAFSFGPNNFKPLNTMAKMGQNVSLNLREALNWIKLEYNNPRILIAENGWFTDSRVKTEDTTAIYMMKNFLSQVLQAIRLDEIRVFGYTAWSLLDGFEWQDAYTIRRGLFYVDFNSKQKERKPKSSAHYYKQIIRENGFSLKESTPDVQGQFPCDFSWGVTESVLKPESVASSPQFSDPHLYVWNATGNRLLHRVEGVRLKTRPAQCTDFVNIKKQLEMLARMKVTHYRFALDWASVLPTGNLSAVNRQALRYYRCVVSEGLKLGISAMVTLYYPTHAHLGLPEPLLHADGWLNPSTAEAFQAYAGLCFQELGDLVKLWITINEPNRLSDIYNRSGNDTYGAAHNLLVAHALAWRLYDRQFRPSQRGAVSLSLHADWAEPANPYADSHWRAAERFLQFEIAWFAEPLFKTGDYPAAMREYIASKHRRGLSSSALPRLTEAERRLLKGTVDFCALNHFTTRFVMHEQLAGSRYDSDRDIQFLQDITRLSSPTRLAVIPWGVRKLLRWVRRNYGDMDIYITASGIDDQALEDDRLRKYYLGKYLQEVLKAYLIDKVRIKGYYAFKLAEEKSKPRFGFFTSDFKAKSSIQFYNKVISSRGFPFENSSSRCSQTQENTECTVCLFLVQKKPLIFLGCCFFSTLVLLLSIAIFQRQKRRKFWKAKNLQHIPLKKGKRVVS
Method in brief: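 pERK after 12 min analogue exposure at 37° C. was quantified by AlphaScreen SureFire in lysates of beta-klotho-transfected HEK293 cells. Assay medium was DMEM with 0.02% Tween20, run both without albumin and with 0.1% final HSA to probe albumin binding. Cells were starved 2 h in basal medium first. Absolute EC50 reported.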

[1] = Body weight reduction in lean mice; assay type: in vivo, lean C57BL mice; details: change from baseline day 1 to 7
Experimental: In order to determine the in vivo potency of the FGF21 derivatives the effect on body weight was studied in lean C57BL mice after subcutaneous (s.c.) administration. It has previously been shown that the weight loss induced by FGF21 in lean mice is predictive of the effect in obese mice and therefore lean mice are considered a good screening model.
The compounds were administered s.c. 1 mg/kg either once (QD) or twice (BID) daily in 10 mM phosphate, 2% (w/vol) glycerol, 500ppm (=0.05%) polysorbate 80, pH=8.15, (2 ml/kg) for 7 days (n=7-8). The respective vehicle treated groups (control) were treated with 10 mM phosphate, 2% (w/vol) glycerol, 500ppm (=0.05%) polysorbate 80, pH=8.15, (2 ml/kg) s.c. twice daily for 7 days (n=6-8). Body weight was measured before dosing and again after 7 days treatment.

[2] = Pharmacokinetic study in mice (i.v.); details: terminal half-life, single intravenous dose of 20 mg/kg, lean C57bl mice
Experimental: This was done in a pharmacokinetic (PK) study, where the terminal half-life of the analogue in question was determined. By terminal half-life is meant the time it takes to halve a certain plasma concentration in the terminal elimination phase.
The pharmacokinetic profile of FGF21 analogues was tested in normal lean C57b1 mice, n =2-3 (approximately 30 grams). FGF21 compounds were dosed as a single intravenous dose of 20 mg/kg (approximately 5 ml/kg).
The plasma levels of the FGF21 compounds were determined using Fibroblast Growth Factor-21 Human ELISA (available from BioVendor, catalogue no. RD191108200R). The PC based software, WnNonLin version 6.3 from Pharsight Corportion, Cary N.C., was used for the pharmacokinetic calculation.

[3] = Pharmacokinetic study in mini pigs (i.v.); details: terminal half-life, female Gottingen mini pigs
Experimental: The purpose of this study was to determine the protraction in vivo of the FGF21 derivatives after i.v. administration to mini pigs and mice, i.e. the prolongation of their time in the body and thereby their time of action. This was done in a pharmacokinetic (PK) study, where the terminal half-life of the analogue in question was determined. By terminal half-life is meant the time it takes to halve a certain plasma concentration in the terminal elimination phase.
Female Gottingen mini pigs were obtained from Ellegaard Gottingen Minipigs (Dalmose, Denmark) approximately 7-14 months of age and weighing approximately 16-35 kg were used in the studies. The mini pigs were housed either individually (pigs with permanent catheters) or in a group and fed restrictedly once or twice daily with SDS mini pig diet (Special Diets Services, Essex, UK).
After at least 2 weeks of acclimatisation two permanent central venous catheters were implanted in vena cava caudalis or cranialis in each animal. The animals were allowed 1 week recovery after the surgery, and were then used for repeated pharmacokinetic studies with a suitable wash-out period between successive dosing.
Blood samples (for example 0.8 ml) were collected in EDTA (8 mM) coated tubes and then centrifuged at 4° C. and 1942G for 10 minutes. Blood samples were collected to adequately cover the full plasma concentration-time profile of the API. In example blood samples were collected at t=predose, 0.0833, 0.25, 0.5, 0.75, 1, 1.5, 2, 3, 4, 6, 8, 10, 24, 30, 48, 72, 96, 120, 144, 168, 192, 216, 240, 264 hours after dose.
Plasma was pipetted into Micronic tubes on dry ice, and kept at −20° C. until analysed for plasma concentration of the respective FGF-1 analogue using ELISA. Individual plasma concentration-time profiles were analyzed by a non-compartmental pharmacokinetic method in Phoenix v. 6.3 (Pharsight Inc., Mountain View, Calif., USA), or other relevant software for PK analysis, and the resulting terminal half-lives (harmonic mean) determined.

[4] = presence of 0.1% HSA, read-out: EC50 (0.1% HSA)

Molecule | EC50 (3T3-L1 adipocytes) [nM] | Glucose uptake Emax (3T3-L1 adipocytes) [%] | EC50 (FGF receptor/BKL complex; absence of HSA, read-out: EC50) [nM] | Mean Δ body weight (%) ([1]; s.c. 1 mg/kg BID for 7 days) | Half-life mice [2] [h] | EC50 (FGF receptor/BKL complex; [4]) [nM] | Half-life mini pigs [3] [h] | Mean Δ body weight (%) ([1]; s.c. 1 mg/kg QD for 7 days)
B1 | 3.1 | 85 | 2 | −1.98** % |  |  |  | 
B2 |  |  |  |  | 12 |  |  | 
B3 | 2.7 | 87 | 7 | −2.04% | 1 | 4 |  | 
B4 | 410 | 57 | 58 |  | 19 | 434 |  | 
B5 | 6.7 | 106 | 6 | −3.09* % | 1 | 6 | 3 | 1.85
B6 |  |  | 154 | 0.04% | 1 | 137 |  | 
B7 | 56 | 73 | 42 |  | 14 | 170 | 85 | 
B8 | 8 | 71 | 8 |  |  | 20 |  | 
